Measured values reported in publication PMC10953559, “Native Capillary Electrophoresis–Mass Spectrometry of Near 1 MDa Non‐Covalent GroEL/GroES/Substrate Protein Complexes” (Advanced Science, 2024).

B1: double-ring (DR) mutant GroEL 14-mer (mutant GroEL14) (natural protein, E. coli, UniProt P0A6F5 2-548, looked up)
chain: AAKDVKFGNDARVKMLRGVNVLADAVKVTLGPKGRNVVLDKSFGAPTITKDGVSVAREIELEDKFENMGAQMVKEVASKANDAAGDGTTTATVLAQAIITEGLKAVAAGMNPMDLKRGIDKAVTAAVEELKALSVPASDSKAIAQVGTISANSDETVGKLIAEAMDKVGKEGVITVEDGTGLQDELDVVEGMQFDRGYLSPYFINKPETGAVELESPFILLADKKISNIREMLPVLEAVAKAGKPLLIIAEDVEGEALATLVVNTMRGIVKVAAVKAPGFGDRRKAMLQDIATLTGGTVISEEIGMELEKATLEDLGQAKRVVINKDTTTIIDGVGEEAAIQGRVAQIRQQIEEATSDYDREKLQERVAKLAGGVAVIKVGAATEVEMKEKKARVEDALHATRAAVEEGVVAGGGVALIRVASKLADLRGQNEDQNVGIKVALRAMEAPLRQIVLNAGEEPSVVANTVKGGDGNYGYNAATEEYGNMIDMGILDPTKVTRSALQYAASVAGLMITTEAMVTDLPKNDAADLGAAGGMGGMGGMGGMC
notes: GroEL, E. coli, UniProtKB P0A6F5, with four mutations made by QuikChange from the WT GroEL gene; the measured mass fits 14 monomers with the N-terminal methionine cleaved; numbers count the first methionine; also called DR GroEL14; source: E. coli BL21 (DE3) Gold, purified from the soluble fraction (chromatography, size exclusion); copies: 14

Key:
[1] = target: the molecule itself; experiment: native MS; capillary electrophoresis online with native ESI-MS (CE-MS) of the oligomer; bare fused silica capillary, BGE 50 mM ammonium acetate pH 6.7, 20 kV reverse polarity, cartridge 15 °C, in-source desolvation 100 V; sample diluted in 50 mM Tris-HCl pH 7.5, 50 mM KCl, 15 mM MgCl2
[2] = target: B1; experiment: native MS; CE-MS; GroEL14 (6 µM) and GroES7 (6 µM) injected; BGE 50 mM ammonium acetate pH 6.7 with 10 to 50 µM ATPγS and 15 to 75 µM Mg2+; conditions: both partners purified

Binder	stoichiometry N [1]	stoichiometry N [2]
B1	14 subunits	–
co-chaperonin GroES 7-mer (GroES7) (natural protein, E. coli, UniProt P0A6F9 1-97, looked up, GroES, E. coli, WT monomer; the measured mass fits the non-truncated form (N-terminal methionine kept); also called apo-GroES7; source: E. coli BL21 (DE3) Gold, purified from the soluble fraction (chromatography, size exclusion)) MNIRPLHDRVIVKRKEVETKSAGGIVLTGSAAAKSTRGEVLAVGNGRILENGEVKPLDVKVGDIVIFNDGYGVKSEKIDNEEVLIMSESDILAIVEA	7 subunits	1 GroES7 per GroEL14
single-ring (SR) mutant GroEL 7-mer (GroEL7) (natural protein, E. coli, UniProt P0A6F5 2-548, looked up, GroEL, E. coli, UniProtKB P0A6F5, with four mutations made by QuikChange from the WT GroEL gene; theoretical mass quoted for 7 monomers with the N-terminal methionine cleaved; numbers count the first methionine; also called SR GroEL7; mutant SR; source: E. coli BL21 (DE3) Gold, purified from the soluble fraction (chromatography, size exclusion)) AAKDVKFGNDARVKMLRGVNVLADAVKVTLGPKGRNVVLDKSFGAPTITKDGVSVAREIELEDKFENMGAQMVKEVASKANDAAGDGTTTATVLAQAIITEGLKAVAAGMNPMDLKRGIDKAVTAAVEELKALSVPCSDSKAIAQVGTISANSDETVGKLIAEAMDKVGKEGVITVEDGTGLQDELDVVEGMQFDRGYLSPYFINKPETGAVELESPFILLADKKISNIREMLPVLEAVAKAGKPLLIIAEDVEGEALATLVVNTMRGIVKVAAVKAPGFGDRRKAMLQDIATLTGGTVISEEIGMELEKATLEDLGQAKRVVINKDTTTIIDGVGEEAAIQGRVAQIRQQIEEATSDYDREKLQERVAKLAGGVAVIKVGAATEVEMKEKKARVEDALHATRAAVEEGVVAGGGVALIRVASKLADLRGQNEDQNVGIKVALRAMEAPLEQIVLNCGEAPAAVANTVKGGDGNYGYNAATEEYGNMIDMGILDPTKVTRSALQYAASVAGLMITTECMVTDLPKNDAADLGAAGGMGGMGGMGGMM	7 subunits	–
N-acetyl neuraminic acid aldolase, native tetramer (NanA4) (enzyme, E. coli, UniProt P0A6L4 2-297, looked up, N-acetyl neuraminic acid aldolase NanA, E. coli, WT monomer; the theoretical mass quoted for the detected tetramer (129 849.09 Da) is that with the N-terminal methionine cleaved; also called tetrameric NanA4; source: E. coli BL21 (DE3) Gold, purified from the soluble fraction (chromatography, size exclusion)) ATNLRGVMAALLTPFDQQQALDKASLRRLVQFNIQQGIDGLYVGGSTGEAFVQSLSEREQVLEIVAEEAKGKIKLIAHVGCVSTAESQQLAASAKRYGFDAVSAVTPFYYPFSFEEHCDHYRAIIDSADGLPMVVYNIPALSGVKLTLDQINTLVTLPGVGALKQTSGDLYQMEQIRREHPDLVLYNGYDEIFASGLLAGADGGIGSTYNIMGWRYQGIVKALKEGDIQTAQKLQTECNKVIDLLIKTGVFRGLKTVLHYMDVVSVPLCRKPFGPVDEKYLPELKALAQQLMQERG	4 subunits	–
